The values below come from doi:10.1101/790931, “Pal stabilises the bacterial outer membrane during constriction by a mobilisation-and-capture mechanism” (bioRxiv, 2019).

No end group written: not given here.

The target in this assay is T1, C-terminal domain of Pseudomonas aeruginosa TolA (TolA^224-347) (Pseudomonas aeruginosa, UniProt P50600 224-347).
T1 construct: TolA, Pseudomonas aeruginosa, C-terminal domain, residues 224-347; Uniformly 15N- or 13C/15N-labelled for the NMR experiments, unlabelled for fluorescence anisotropy; also called wild-type TolA (residues 224-347); C-terminal domain of TolA; not shown: His tag, N-terminal, cleaved; Im9, N-terminal, cleaved
T1 sequence (looked up): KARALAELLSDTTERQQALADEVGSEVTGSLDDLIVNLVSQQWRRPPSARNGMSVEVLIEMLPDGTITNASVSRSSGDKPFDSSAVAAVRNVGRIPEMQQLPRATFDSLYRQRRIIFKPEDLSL
The assay is described as follows: NMR titration; TolB peptide added to 0.6 mM 15N-labelled TolA; 1H,15N-HSQC; 20 mM phosphate, 100 mM NaCl, pH 7.6; slow exchange, ratio of bound and free peak volumes; fits for Ser271, Ser306, Gly316, Leu347. To be noted: both partners purified.

B1: P. aeruginosa TolB[22-34] peptide (the TolA box) (peptide)
peptide: ADPLVISSGNDRA-NH2
notes: TolB, Pseudomonas aeruginosa, residues 22-34, the N-terminus of secreted TolB; also called TolB[22-33]; (in supplementary legends); N-terminus of TolB; source: synthetic peptide (thinkpeptides UK (ProImmune))
Broadly, the Kd is a measure of binding affinity in units of concentration. As to B1, the Kd was determined as 220 µM.
